Test results as given in patent US20200317768A1 (published 2020).
Numbering of substitutions follows the chain as printed.

T1: human FcγRIIaR extracellular domain with C-terminal His-tag (human, UniProt P12318 34-217)
T1 construct: also called human FcgRIIaR; FcγRIIa (type R)
T1 chain: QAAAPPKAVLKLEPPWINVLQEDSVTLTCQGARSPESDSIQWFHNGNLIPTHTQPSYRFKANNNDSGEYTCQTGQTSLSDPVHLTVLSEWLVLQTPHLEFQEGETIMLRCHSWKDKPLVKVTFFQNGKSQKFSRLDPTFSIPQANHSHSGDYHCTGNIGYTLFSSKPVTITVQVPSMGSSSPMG

T2: cynomolgus monkey FcγRIIa1 extracellular domain with C-terminal His-tag (cynomolgus monkey)
T2 construct: also called cyno FcgRIIa1; cynoFcγRIIa1
T2 chain: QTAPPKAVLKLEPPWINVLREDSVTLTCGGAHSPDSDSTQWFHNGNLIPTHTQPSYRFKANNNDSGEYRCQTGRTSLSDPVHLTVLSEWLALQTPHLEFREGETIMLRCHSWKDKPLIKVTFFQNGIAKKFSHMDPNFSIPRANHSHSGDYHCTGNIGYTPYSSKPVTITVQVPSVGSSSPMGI

T3: cynomolgus monkey FcγRIIa2 extracellular domain with C-terminal His-tag (cynomolgus monkey)
T3 construct: also called cyno FcgRIIa2; cynoFcγRIIa2
T3 chain: T2 chain with P95T, T121A, I127K, A128S, K130N, D135N, R142Q

T4: human FcγRIIaH extracellular domain with C-terminal His-tag (human, UniProt P12318 34-217)
T4 construct: also called human FcgRIIaH; FcγRIIa (type H)
T4 sequence: T1 chain with R134H

T5: human FcγRIIb extracellular domain with C-terminal His-tag (human, UniProt P31994 43-217)
T5 construct: also called human FcgRIIb
T5 sequence: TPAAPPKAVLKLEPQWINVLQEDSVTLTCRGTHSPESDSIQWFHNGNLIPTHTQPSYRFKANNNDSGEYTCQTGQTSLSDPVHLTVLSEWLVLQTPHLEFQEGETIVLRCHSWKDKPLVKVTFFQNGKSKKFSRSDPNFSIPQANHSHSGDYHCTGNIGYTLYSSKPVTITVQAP

T6: cynomolgus monkey FcγRIIIaS extracellular domain with C-terminal His-tag (cynomolgus monkey, UniProt Q8SPW2 21-206 at identity 1.00))
T6 construct: also called cyno FcgRIIIaS; cynoFcγRIIIaS
T6 chain: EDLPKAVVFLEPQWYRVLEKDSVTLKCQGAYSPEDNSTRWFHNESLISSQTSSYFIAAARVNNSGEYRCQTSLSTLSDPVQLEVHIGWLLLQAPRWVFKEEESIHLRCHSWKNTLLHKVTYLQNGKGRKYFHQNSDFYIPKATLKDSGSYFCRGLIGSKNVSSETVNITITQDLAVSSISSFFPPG

T7: cynomolgus monkey FcγRIIb extracellular domain with C-terminal His-tag (cynomolgus monkey)
T7 construct: also called cyno FcgRIIb; cynoFcγRIIb
T7 chain: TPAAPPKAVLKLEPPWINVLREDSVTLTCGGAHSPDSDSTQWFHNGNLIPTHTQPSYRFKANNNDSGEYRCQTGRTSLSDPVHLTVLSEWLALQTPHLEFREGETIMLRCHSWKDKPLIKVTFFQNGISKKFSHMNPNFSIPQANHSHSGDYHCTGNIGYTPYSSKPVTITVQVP

B1: M103205H795-MY528/M103202L889-SK1 (antibody, human IgG1, kappa)
heavy: QVTLKESGPVLVKPTETLTLTCTVSGIDLSHDDISWVRQAPGKGLEWVGIISYAGSTYYASWAKGRLTISKDTSKNQVVLTMTNMDPVDTATYYCARGVPAYSHGGDLWGQGTLVTVSSASTKGPSVFPLAPSSKSTSGGTAALGCLVKDYFPEPVTVSWNSGALTSGVHTFPAVLQSSGLYSLSSVVTVPSSSLGTQTYICNVNHKPSNTKVDKKVEPKSCDKTHTCPPCPAPEWLTGPSVFLFPPKPKDTLMISRTPEVTCVVVDVSDEDPEVKFNWYVDGVEVHNAKTKPREEQYNSTYRVVSVLTVLHQDWLNGKEYKCKVSNKALPKPIEKTISKAKGQPREPQVYTLPPSREEMTKNQVSLTCLVKGFYPSDIAVEWESNGQPENNYKTTPPVLDSDGSFFLYSKLTVDKSRWQQGNVFSCSVMHEALHNHYTQKSLSLSP
light: DIVMTQSPATLSLSPGERATLSCTSSQSVYHANWLSWFQQKPGQPPKLLIYWASTLAYGVPSRFSGSGSGTDFTLTISSLQPEDAATYYCAGGYGGGRYAFGQGTKVEIKRTVAAPSVFIFPPSDEQLKSGTASVVCLLNNFYPREAKVQWKVDNALQSGNSQESVTEQDSKDSTYSLSSTLTLSKADYEKHKVYACEVTHQGLSSPVTKSFNRGEC
notes: Substitutions introduced into M103205H795-SG1, expressed with M103202L889-SK1 as light chain; EU numbering
B2: M103205H795-MY529/M103202L889-SK1 (antibody, human IgG1, kappa)
heavy: B1 heavy with Q297L
light: B1 light
notes: as for B1
B3: M103205H795-MY530/M103202L889-SK1 (antibody, human IgG1, kappa)
heavy: B1 heavy with W236L, K328T
light: B1 light
notes: as for B1
B4: M103205H795-MY531/M103202L889-SK1 (antibody, human IgG1, kappa)
heavy: B1 heavy with K328T
light: B1 light
notes: as for B1
B5: M103205H795-MY532/M103202L889-SK1 (antibody, human IgG1, kappa)
heavy: B1 heavy with S241V
light: B1 light
notes: as for B1

Columns and labels:
Experiment in all cases: SPR (BIACORE), antibody captured, FcgR analyte
[1] = target: T1, human FcγRIIaR extracellular domain …
[2] = target: T2, cynomolgus monkey FcγRIIa1 …
[3] = target: T3, cynomolgus monkey FcγRIIa2 …
[4] = target: T4, human FcγRIIaH extracellular domain …
[5] = target: T8, human FcγRIIIaV extracellular domain with C-terminal His-tag (human, UniProt P08637 17-208)
T8 construct: also called human FcgRIIIaV

[6] = target: T5, human FcγRIIb extracellular domain with …
[7] = target: T6, cynomolgus monkey FcγRIIIaS …
[8] = target: T7, cynomolgus monkey FcγRIIb extracellular …

T8 sequence (P08637 17-208 F176V): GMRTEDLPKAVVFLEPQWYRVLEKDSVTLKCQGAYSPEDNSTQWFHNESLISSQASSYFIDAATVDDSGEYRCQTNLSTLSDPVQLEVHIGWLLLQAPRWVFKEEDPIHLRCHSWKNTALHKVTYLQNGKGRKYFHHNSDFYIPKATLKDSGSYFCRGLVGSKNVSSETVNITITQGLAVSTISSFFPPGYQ

Row | Binder | Kd [1] [nM] | Kd [2] [nM] | Kd [3] [nM] | Kd [4] [nM] | Kd [5] [nM] | Kd [6] [nM] | Kd [7] [nM] | Kd [8] [nM]
1 | B1 | 360 | 1400 | 1500 | 390 | 4200 | 2200 | 2000 | 410
2 | B2 | 530 | 1000 | 1400 | 230 | 4000 | 1400 | 2200 | 390
3 | B3 | 270 | 13 | 1100 | 170 | 3600 | 1600 | 850 | 320
4 | B4 | 410 | 1100 | 920 | 290 | 2900 | 1500 | 1000 | 270
5 | B5 | 190 | 770 | 600 | 210 | 1700 | 830 | 860 | 230
